This data set in a line: amyloid nucleation score (Sup35N fusion, yeast selection) (log enrichment); library NNK2; higher = more nucleation; inactive = no reads after selection. The method in brief: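 After 24 hours of induction with 100 μM copper sulfate, psi-negative yeast expressing peptides of 20 random codons fused to Sup35N were grown for 7 days at 30°C on medium lacking adenine and uracil. Input and output plasmid inserts were sequenced with Illumina, and sequences with under 100 input reads were discarded. Scores for nucleation are the DiMSum log enrichment of output over input reads, centred on the mode score of non-aggregating sequences.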

± gives the uncertainty stated by the source.

In the case of VPSFYYRIVTYKRAE, the amyloid nucleation score was found to be 2.74 ± 0.094. The entry for RIWYY is “inactive”; for MFVGSGRDCTVTVPFRQPTG it is 1.86 ± 0.29. As for CNCVARYGEVKEGIHVAFDY, the figure is -0.529 ± 0.76; as for IVNCCSYLYTRIHNVGPAGN, 6.383 ± 0.063.

INFMAVDDKPRVVVEPCPSA: the amyloid nucleation score was found to be 0.623 ± 0.62. Take PRVPCTHHMPGW: the amyloid nucleation score is 0.027 ± 0.65. SHFCN gave an amyloid nucleation score of 0.859 ± 0.43.

In turn, GVSGIEVVFYMLSKWGKHER showed an amyloid nucleation score of 4.13 ± 0.054. The figure for IFHCGLLRALRFSSHLYWVG is 0.505 ± 0.51; for SCFRC it is 9.804 ± 0.047; for LWLVSKAYRYLPYSDWKSAL it is 0.161 ± 0.77.

In turn, YRLVHNSKREPGWRSCEWDH showed an amyloid nucleation score of 0.046 ± 0.63. Substance CAISM displayed an amyloid nucleation score of 4.271 ± 0.039. As for GEYINAWSLNIV, the figure is -0.683 ± 0.64; as for TVFSIMLLSRM, -0.002 ± 1. The substance TTVSYISERFTYLGSL returned an amyloid nucleation score of 3.84 ± 0.12. Turning to WHLCFISHTLRGMRTLWSIR, the amyloid nucleation score was -0.829 ± 1.1.

On to NAYFMLEILRTKWTQDSTER, for which the amyloid nucleation score is -0.99 ± 0.78. The figure for IAFGAGCLMWSR is 8.335 ± 0.063; for SSLVNTACDTL it is -0.036 ± 0.29; for TFRLRECWCDADLRVGVMSL it is 0.778 ± 0.47. As to GVFYDKYRGSVWSEDCKLWT, the amyloid nucleation score result was “inactive”. Turning to GTLPA, the amyloid nucleation score is -0.747 ± 0.48. The figure for YSLLNVSHVVFTSA is -0.71 ± 0.61. For the substance SGIRDTLVSWGPRGMG, the amyloid nucleation score is -0.309 ± 0.45.

As to DVLIRKWIIWDASNLQWMAI, the amyloid nucleation score is 0.144 ± 0.36.

With SPPLYARHCYILERITTDRM, the amyloid nucleation score is -1.73 ± 0.62. Regarding FSIVFGI, the amyloid nucleation score amounted to 1.17 ± 0.15. As for THTGLGG, the figure is 0.654 ± 0.8; as for DIMAAIYMDG, 0.715 ± 0.43. The figure for FWCCANRSLVISLI is -0.907 ± 0.4. VFSDWMNCRYLMLRVCRVPR displayed an amyloid nucleation score of 0.629 ± 0.56. The entry for QIFFWSSFN is “inactive”; for GASSF it is “inactive”. The figure for LLLVRFAPISV is -0.176 ± 1.1; for TPVWVGVSLVPPIAPTTWIN it is 0.288 ± 0.28; for SLQSSYEYINPRSLLHCSHL it is -1.44 ± 0.49. On to LSFSNPWFMIKSRDMFVCIG, for which the amyloid nucleation score came to 0.792 ± 0.8. As to WTGHMPMSLVHLMIGWHGHY, the amyloid nucleation score turned out to be 0.637 ± 0.62. VDYGQRAPTCITSHYHLNRC yielded an amyloid nucleation score of 0.227 ± 1.1. As for HEEVLLHGLVCKLHRMKR, the figure is 0.474 ± 0.26; as for QFFMWTGGH, 2.84 ± 0.1; as for RSVALARLMFVPLTLDSV, 0.264 ± 0.2. As for TTTWGENLFASNYLLSKTAG, the figure is -0.088 ± 1.1; as for LALSRYFGL, -0.909 ± 0.54.

Substance YGGDVSP showed an amyloid nucleation score of 0.1 ± 0.4. As for SMATSSYMLSAMRTCTLRSV, the figure is -0.231 ± 0.63; as for LNYCHILSMYGNIAIIRSQF, 4.48 ± 0.048; as for LFYSPSVGCWFLFSYGPHIG, “inactive”. As for LFISVSYSEFVFQIQDALRC, the figure is 1.48 ± 0.12; as for TLSVTEGYSNLTSMWYGCKR, 3.23 ± 0.15; as for YYFDPS, -0.961 ± 0.62.

FFDYLANFCLSKHGNNNYPF: the amyloid nucleation score was -0.97 ± 1.1.

Regarding AGVCCSVSNILWKCTSSSNG, the amyloid nucleation score came to 9.932 ± 0.023. TMHYYLWDSN yielded an amyloid nucleation score of 4.88 ± 0.1.

MFKQFVSLLHQGLFLSLSFD: the amyloid nucleation score was -0.01 ± 0.6. The figure for FFFVLFGFWYKTRWSMCISK is 2.31 ± 0.22.

With VFFSESERYSGVKLGAVEDT, the amyloid nucleation score was 0.189 ± 0.49. The figure for YYSPQSVKEYPRNTYRLIKA is -0.613 ± 0.45; for RAYCAYTLR it is 5.94 ± 0.071. The figure for VCNRPI is -0.78 ± 0.26; for RPVCKFL it is 0.275 ± 0.5.

In the case of HVKTTYQLAFSNEQIM, the amyloid nucleation score was -0.673 ± 0.48. The figure for GIGMRQYMNT is 0.823 ± 0.32. The figure for PLILGGGLLWIVC is 0.201 ± 0.74. The figure for NNPWFCGGSLWLYGSQYSPS is 3.23 ± 0.078. In turn, CRRRSPTNGGVNVRN registered an amyloid nucleation score of 0.41 ± 0.74. For NMFIRKEYWSTLALEIFWWS, the amyloid nucleation score is -0.441 ± 0.4. As for FVIVNN, the figure is -0.658 ± 1; as for GECRRWKFGLWENVPDMSIK, 0.177 ± 0.48; as for HTDCYLWLKLYSTLGILFVF, “inactive”.

On to SVWDYC, for which the amyloid nucleation score was -0.053 ± 0.39. The figure for MLKWWLFTRSSSPGRHCRLD is -0.471 ± 0.54; for SYHWTGVFGLVHDFGLCCGS it is 0.425 ± 0.38; for AWVWFS it is -0.845 ± 1.1. As for NKMGVKVYTRIAQHSGHLFA, the figure is 5.21 ± 0.094. In the case of AADKAICPVGGNTGHRSLGS, the amyloid nucleation score was determined as 0.691 ± 0.35. The figure for RWIVRDSFESWFMVLD is -0.267 ± 0.35. MVCRFGILSYVMWRF came in with an amyloid nucleation score of 0.83 ± 0.45. The figure for LSWVRAIS is 0.2 ± 0.38; for LHGVVGLFKY it is -1.55 ± 0.41; for TVVSVGVVRVHATLRVKESG it is 5.661 ± 0.056. For the substance RRLFSVKIAYLCDT, the amyloid nucleation score was 2.63 ± 0.2.

For the substance LYLYSWRCNPISP, the amyloid nucleation score entry is “inactive”. As to LYPCYYCRAEKVHVRLDFTR, the amyloid nucleation score was -0.517 ± 0.23. The figure for EAHGSWL is 0.764 ± 0.38; for LMPGMVGDRRGCNDK it is 0.49 ± 0.26; for MCTDFQC it is 0.475 ± 0.27. As for LAYCGYIHDLFGGILIKLDG, the figure is -0.081 ± 1.1; as for SVCVWAYACRDRTPLLGRFC, 0.508 ± 0.56; as for FYKLNGKNWSRVKVPHSWLF, “inactive”. The figure for LVLYGNVA is 0.28 ± 0.74; for YALRLLHGSYNSNT it is 3.31 ± 0.084; for VSFTARSRHVDGGLSS it is 1.04 ± 0.32. Turning to QTMVCTTISAPKSGSAWERS, the amyloid nucleation score was determined as 0.109 ± 0.37. As for SSQTGTCFARLQSAVFQVVW, the figure is 1.69 ± 0.36. The substance SVPRYRSLMKRCH gave an amyloid nucleation score of 0.189 ± 0.32. In the case of CKSEYIWYPKFAMGSFDPSQ, the amyloid nucleation score entry is “inactive”. On to SVYDPAYVLNMNTLSTSSNL, for which the amyloid nucleation score came to 0.451 ± 0.33. In the case of GLMRVRYESHRMKAGSLVSR, the amyloid nucleation score was 1.89 ± 0.36.

On to IYYGGYVNRLNREAFRGCKL, for which the amyloid nucleation score was -1.49 ± 0.49.

For RCEFSACMCGVCGAYKCMRF, the amyloid nucleation score worked out at 5.3 ± 0.064. As for RGRHGASMELESVDKRTVSR, the figure is 0.656 ± 0.34. The figure for LSGAPRLILRVNLWDTFDVQ is 4 ± 0.046; for WPTSSTYQHWFD it is 0.606 ± 0.41.

The values are drawn from the supplement of paper PMC12042874.
